Test results published in patent US20030203373A1 (priority 2002, published 2003).

Assays:
[1] = tested on: normotensive Wister rats; experiment: Bradykinin-potentiating effect on blood pressure in anaesthetized normotensive rats; type: in vivo, rat; details: Captopril 1.5 × 10^−4 M + Bradykinin 2.5 × 10^−6 M
Method: In the in vivo experiments with normotensive rats the animals were previously anaesthetized and after blood pressure stabilization treated with a constant amount of bradykinin. Subsequently, either Captopril or human BPP were administered, again followed by a constant amount of bradykinin. Afterwards the maximum blood pressure drop was determined and, on the basis of bradykinin as a factor 1, the potentiating factor was determined. In the same way, the systolic and diastolic blood pressure, the percentage middle pressure decrease and the time required to come back to the baseline values were measured (see tables 4a to 4j). A detailed experimental description is given below.
2. Measurement of Blood Pressure in Normotensive and Hypertensive Rats
The trials were conducted on female anaesthetized normotensive Wister rats with weight ranging from 210 to 240 g.
The peptide pANP48-57 used for the in vivo assays was synthesized by Biosynthan (Berlin) with a HPLC-determined purity of 98%.
Anaesthetizing was performed by i.p.-administration of 1 ml/kg Ketavit (100 mg/ml)+Rampun (2%).
In order to conduct the blood pressure measurement, a polyethylene catheter was introduced into the Aorta femuralis and connected with a pressure transducer. A Statham-P23A pressure-transducer was linked to a Gould Polygraph and used to determine the arterial blood pressure. A Hg-manometer was used to calibrate the system.
All substances were dissolved and diluted in a physiological sodium chloride solution and introduced into the Vena jugularis via a catheter.
After stabilization of blood pressure (after about 10 minutes) […] body weight of a 2,5 μM bradykinin-solution (Sigma) was administered.
The middle pressure was determined from the measured diastolic (pd) and systolic (ps) blood pressure by using the following formula: pm=(ps−Pd)×0,42+pd.

[2] = target: T1, angiotensin-converting-enzyme derived from pig kidney (pig) (UniProt F1RRW5); experiment: cell-based or functional assay
T1 sequence (looked up): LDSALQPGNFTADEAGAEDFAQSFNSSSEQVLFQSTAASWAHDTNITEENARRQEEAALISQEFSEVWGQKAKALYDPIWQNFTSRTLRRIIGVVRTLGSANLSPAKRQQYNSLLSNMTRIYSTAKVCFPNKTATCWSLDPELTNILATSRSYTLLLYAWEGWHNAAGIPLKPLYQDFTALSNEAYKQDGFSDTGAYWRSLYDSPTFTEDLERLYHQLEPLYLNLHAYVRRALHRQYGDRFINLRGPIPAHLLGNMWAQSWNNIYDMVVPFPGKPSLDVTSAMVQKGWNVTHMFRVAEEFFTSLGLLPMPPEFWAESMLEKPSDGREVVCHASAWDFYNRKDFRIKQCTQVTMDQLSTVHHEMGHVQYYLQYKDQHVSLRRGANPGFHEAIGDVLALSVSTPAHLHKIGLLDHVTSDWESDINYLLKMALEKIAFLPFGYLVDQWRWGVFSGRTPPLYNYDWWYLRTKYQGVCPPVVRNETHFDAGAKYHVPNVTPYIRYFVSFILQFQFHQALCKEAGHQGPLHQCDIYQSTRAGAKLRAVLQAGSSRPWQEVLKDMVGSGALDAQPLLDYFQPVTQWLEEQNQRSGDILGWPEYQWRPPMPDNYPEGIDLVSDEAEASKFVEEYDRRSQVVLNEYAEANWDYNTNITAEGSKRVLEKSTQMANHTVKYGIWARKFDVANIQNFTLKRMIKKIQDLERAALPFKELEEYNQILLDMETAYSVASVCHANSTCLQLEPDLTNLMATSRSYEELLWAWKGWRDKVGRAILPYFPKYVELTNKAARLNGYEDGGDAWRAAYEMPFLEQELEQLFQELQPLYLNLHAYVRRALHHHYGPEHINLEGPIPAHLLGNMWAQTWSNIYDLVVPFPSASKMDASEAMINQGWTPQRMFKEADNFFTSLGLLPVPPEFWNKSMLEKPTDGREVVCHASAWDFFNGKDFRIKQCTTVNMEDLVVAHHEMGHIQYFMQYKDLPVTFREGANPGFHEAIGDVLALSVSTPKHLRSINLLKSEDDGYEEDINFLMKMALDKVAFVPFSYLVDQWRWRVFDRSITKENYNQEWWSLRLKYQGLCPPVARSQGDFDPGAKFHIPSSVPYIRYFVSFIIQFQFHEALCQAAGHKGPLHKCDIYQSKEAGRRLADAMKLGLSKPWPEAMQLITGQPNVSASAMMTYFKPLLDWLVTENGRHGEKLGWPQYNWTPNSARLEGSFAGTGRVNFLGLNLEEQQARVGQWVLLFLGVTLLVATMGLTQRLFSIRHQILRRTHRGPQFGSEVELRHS

[3] = target: T2, angiotensin-converting enzyme (ACE) from pig kidney (EC 3.4.15.1 (Sigma)) (pig) (UniProt F1RRW5); experiment: cell-based or functional assay
T2 sequence (looked up): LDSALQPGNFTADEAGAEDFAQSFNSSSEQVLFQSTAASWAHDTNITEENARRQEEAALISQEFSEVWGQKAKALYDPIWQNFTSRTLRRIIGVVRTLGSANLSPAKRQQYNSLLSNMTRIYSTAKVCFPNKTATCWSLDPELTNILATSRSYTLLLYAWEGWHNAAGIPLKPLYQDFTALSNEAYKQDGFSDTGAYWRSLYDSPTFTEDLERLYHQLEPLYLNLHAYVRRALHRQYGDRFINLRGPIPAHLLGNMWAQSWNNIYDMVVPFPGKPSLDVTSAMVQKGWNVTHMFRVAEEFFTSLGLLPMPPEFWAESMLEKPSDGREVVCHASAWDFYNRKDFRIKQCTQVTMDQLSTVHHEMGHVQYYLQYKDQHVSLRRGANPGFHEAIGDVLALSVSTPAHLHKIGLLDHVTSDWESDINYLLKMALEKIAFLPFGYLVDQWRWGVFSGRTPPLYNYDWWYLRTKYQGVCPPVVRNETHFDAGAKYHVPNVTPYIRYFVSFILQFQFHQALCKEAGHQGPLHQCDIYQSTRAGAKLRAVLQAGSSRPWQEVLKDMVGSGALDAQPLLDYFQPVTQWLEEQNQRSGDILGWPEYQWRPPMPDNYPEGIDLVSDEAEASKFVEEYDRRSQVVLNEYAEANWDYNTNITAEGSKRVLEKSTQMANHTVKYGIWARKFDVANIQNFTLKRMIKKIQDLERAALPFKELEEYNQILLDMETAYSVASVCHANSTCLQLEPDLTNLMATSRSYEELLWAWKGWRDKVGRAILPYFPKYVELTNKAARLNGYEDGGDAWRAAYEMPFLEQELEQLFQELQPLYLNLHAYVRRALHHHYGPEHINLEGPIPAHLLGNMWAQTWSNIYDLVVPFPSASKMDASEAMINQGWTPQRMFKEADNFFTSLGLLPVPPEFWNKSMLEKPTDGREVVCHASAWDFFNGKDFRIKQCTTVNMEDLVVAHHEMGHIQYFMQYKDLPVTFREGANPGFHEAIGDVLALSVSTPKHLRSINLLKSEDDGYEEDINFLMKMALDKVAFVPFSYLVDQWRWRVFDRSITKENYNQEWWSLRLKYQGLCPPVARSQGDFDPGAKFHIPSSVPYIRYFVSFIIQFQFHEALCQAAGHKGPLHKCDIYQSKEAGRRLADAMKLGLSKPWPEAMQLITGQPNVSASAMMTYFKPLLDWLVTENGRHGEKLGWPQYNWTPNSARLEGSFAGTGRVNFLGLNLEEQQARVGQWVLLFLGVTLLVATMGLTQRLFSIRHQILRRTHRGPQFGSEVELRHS

With `C[C@H](CS)C(=O)N1CCC[C@H]1C(=O)O` [Captopril, reference compound] the “potentiating factor (factor by which the blood pressure reducing effect of Bradykinin is potentiated, Bradykinin = 1)” value [1] was 2 and the “maximal drop of blood pressure” value ([1]; normotensive rats) was 56% ± 17.3.

In the case of QVLSEPNEEAGAALSPLPEVPP (N-terminal pyroglutamate) [S492], the IC50, ACE inhibition [2] is reported as greater than 300 µM.

Work on PLPEVPP [Peptid S548 (PLPEVPP)] yielded a % inhibition of ACE, 0.39 µM inhibitor, row A [3] of 9.98%, a % inhibition of ACE, 0.39 µM inhibitor, row B [3] of 5.85% and a % inhibition of ACE, 0.39 µM inhibitor, row C [3] of 4.63%. For the same molecule, the % inhibition of ACE, 0.39 µM inhibitor, row D [3] was -9.77%, the % inhibition of ACE, 0.78125 µM inhibitor, row A [3] was 12.8% and the % inhibition of ACE, 0.78125 µM inhibitor, row B [3] was 18.5%. The % inhibition of ACE, 0.78125 µM inhibitor, row C [3] was 6.03%, the % inhibition of ACE, 0.78125 µM inhibitor, row D [3] was 2.73% and the % inhibition of ACE, 1.5625 µM inhibitor, row A [3] was 14.3%. The % inhibition of ACE, 1.5625 µM inhibitor, row B [3] was 25.6%, the % inhibition of ACE, 1.5625 µM inhibitor, row C [3] was 11.2% and the % inhibition of ACE, 1.5625 µM inhibitor, row D [3] was 4.98%. For the same molecule, the % inhibition of ACE, 3.125 µM inhibitor, row A [3] was 20.4%, the % inhibition of ACE, 3.125 µM inhibitor, row B [3] was 18.6% and the % inhibition of ACE, 3.125 µM inhibitor, row C [3] was 16.3%. For the same molecule, the % inhibition of ACE, 3.125 µM inhibitor, row D [3] was 12.7%, the % inhibition of ACE, 6.25 µM inhibitor, row A [3] was 30.6% and the % inhibition of ACE, 6.25 µM inhibitor, row B [3] was 28.8%. It also gave a % inhibition of ACE, 6.25 µM inhibitor, row C [3] of 25.2%, a % inhibition of ACE, 6.25 µM inhibitor, row D [3] of 22.6% and a % inhibition of ACE, 12.5 µM inhibitor, row A [3] of 36.8%. The % inhibition of ACE, 12.5 µM inhibitor, row B [3] was 37.2%, the % inhibition of ACE, 12.5 µM inhibitor, row C [3] was 35.7% and the % inhibition of ACE, 12.5 µM inhibitor, row D [3] was 31.6%. The % inhibition of ACE, 25 µM inhibitor, row A [3] was 55.7%, the % inhibition of ACE, 25 µM inhibitor, row B [3] was 54.8% and the % inhibition of ACE, 25 µM inhibitor, row C [3] was 56.7%. For the same molecule, the % inhibition of ACE, 25 µM inhibitor, row D [3] was 54.5%, the % inhibition of ACE, 50 µM inhibitor, row A [3] was 69.5% and the % inhibition of ACE, 50 µM inhibitor, row B [3] was 68.1%. The % inhibition of ACE, 50 µM inhibitor, row C [3] was 64.2%, the % inhibition of ACE, 50 µM inhibitor, row D [3] was 62.3% and the % inhibition of ACE, 100 µM inhibitor, row A [3] was 81.8%. It also gave a % inhibition of ACE, 100 µM inhibitor, row B [3] of 80.4%, a % inhibition of ACE, 100 µM inhibitor, row C [3] of 78.9% and a % inhibition of ACE, 100 µM inhibitor, row D [3] of 77.8%. The % inhibition of ACE, 200 µM inhibitor, row A [3] was 89.3%, the % inhibition of ACE, 200 µM inhibitor, row B [3] was 88.5% and the % inhibition of ACE, 200 µM inhibitor, row C [3] was 88.4%. It also gave a % inhibition of ACE, 200 µM inhibitor, row D [3] of 87.9%, a fluorescence (ACE activity), 0.39 µM inhibitor, row A [3] of 813000 and a fluorescence (ACE activity), 0.39 µM inhibitor, row B [3] of 850000. For the same molecule, the fluorescence (ACE activity), 0.39 µM inhibitor, row C [3] was 861000, the fluorescence (ACE activity), 0.39 µM inhibitor, row D [3] was 990000 and the fluorescence (ACE activity), 0.78125 µM inhibitor, row A [3] was 788000. The fluorescence (ACE activity), 0.78125 µM inhibitor, row B [3] was 737000, the fluorescence (ACE activity), 0.78125 µM inhibitor, row C [3] was 848000 and the fluorescence (ACE activity), 0.78125 µM inhibitor, row D [3] was 878000. It also gave a fluorescence (ACE activity), 1.5625 µM inhibitor, row A [3] of 774000, a fluorescence (ACE activity), 1.5625 µM inhibitor, row B [3] of 673000 and a fluorescence (ACE activity), 1.5625 µM inhibitor, row C [3] of 803000. It also gave a fluorescence (ACE activity), 1.5625 µM inhibitor, row D [3] of 858000, a fluorescence (ACE activity), 3.125 µM inhibitor, row A [3] of 720000 and a fluorescence (ACE activity), 3.125 µM inhibitor, row B [3] of 736000. The fluorescence (ACE activity), 3.125 µM inhibitor, row C [3] was 756000, the fluorescence (ACE activity), 3.125 µM inhibitor, row D [3] was 789000 and the fluorescence (ACE activity), 6.25 µM inhibitor, row A [3] was 628000. For the same molecule, the fluorescence (ACE activity), 6.25 µM inhibitor, row B [3] was 644000, the fluorescence (ACE activity), 6.25 µM inhibitor, row C [3] was 676000 and the fluorescence (ACE activity), 6.25 µM inhibitor, row D [3] was 699000. The fluorescence (ACE activity), 12.5 µM inhibitor, row A [3] was 573000, the fluorescence (ACE activity), 12.5 µM inhibitor, row B [3] was 668000 and the fluorescence (ACE activity), 12.5 µM inhibitor, row C [3] was 583000. It also gave a fluorescence (ACE activity), 12.5 µM inhibitor, row D [3] of 619000, a fluorescence (ACE activity), 25 µM inhibitor, row A [3] of 402000 and a fluorescence (ACE activity), 25 µM inhibitor, row B [3] of 411000. The fluorescence (ACE activity), 25 µM inhibitor, row C [3] was 394000, the fluorescence (ACE activity), 25 µM inhibitor, row D [3] was 413000 and the fluorescence (ACE activity), 50 µM inhibitor, row A [3] was 278000. It also gave a fluorescence (ACE activity), 50 µM inhibitor, row B [3] of 292000, a fluorescence (ACE activity), 50 µM inhibitor, row C [3] of 326000 and a fluorescence (ACE activity), 50 µM inhibitor, row D [3] of 343000. The fluorescence (ACE activity), 100 µM inhibitor, row A [3] was 168000, the fluorescence (ACE activity), 100 µM inhibitor, row B [3] was 181000 and the fluorescence (ACE activity), 100 µM inhibitor, row C [3] was 194000. The fluorescence (ACE activity), 100 µM inhibitor, row D [3] was 204000, the fluorescence (ACE activity), 200 µM inhibitor, row A [3] was 101000 and the fluorescence (ACE activity), 200 µM inhibitor, row B [3] was 108000. For the same molecule, the fluorescence (ACE activity), 200 µM inhibitor, row C [3] was 109000 and the fluorescence (ACE activity), 200 µM inhibitor, row D [3] was 114000.
